Experimental data published in US20260242735A1 (UNIVERSIT T BASEL, published 2026).

B1: Refmab #5 (antibody, V domains shown)
VH: QVQLVQSGAEVKKPGASVKVSCKASGYTFTNYDINWVRQAPGQGLEWIGWIYPGDGSTKYNEKFKAKATLTADTSTSTAYMELRSLRSDDTAVYYCASGYEDAMDYWGQGTTVTVSS
VL: DIQMTQSPSSLSASVGDRVTINCKASQDINSYLSWFQQKPGKAPKTLIYRANRLVDGVPSRFSGSGSGQDYTLTISSLQPEDFATYYCLQYDEFPLTFGGGTKVEIK
notes: Full-length format is human IgG1 Fc silent (PG-LALA); also made as Fab; The alanine scan used IgG or Fab
B2: Refmab #6 (antibody, V domains shown)
VH: QVQLQQPGAEVVKPGASVKMSCKASGYTFTSYYIHWIKQTPGQGLEWVGVIYPGNDDISYNQKFQGKATLTADKSSTTAYMQLSSLTSEDSAVYYCAREVRLRYFDVWGQGTTVTVSS
VL: EIVLTQSPGSLAVSPGERVTMSCKSSQSVFFSSSQKNYLAWYQQIPGQSPRLLIYWASTRESGVPDRFTGSGSGTDFTLTISSVQPEDLAIYYCHQYLSSRTFGQGTKLEIK
notes: as for B1
B3: Refmab #4 (antibody, human IgG1, V domains shown)
VH: QVQLVQSGAEVKKPGESVKVSCKASGYTFTNYGMNWVKQAPGQGLEWMGWINTYTGEPTYADKFQGRVTMTTDTSTSTAYMEIRNLGGDDTAVYYCARWSWSDGYYVYFDYWGQGTSVTVSS
VL: DIVMTQSPDSLTVSLGERTTINCKSSQSVLDSSTNKNSLAWYQQKPGQPPKLLLSWASTRESGIPDRFSGSGSGTDFTLTIDSPQPEDSATYYCQQSAHFPITFGQGTRLEIK

What was measured:
human CD33 I227A = human CD33 I227A (human, UniProt P20138 18-364); test: alanine scan, flow cytometry;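 note: HEK293-T cells transiently expressing single-residue alanine mutants of CD33 (alanine swapped to serine), antibody binding read by fluorescence in duplicate, background-subtracted, expressed relative to wild-type CD33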
Method: (§1) An alanine scan on human CD33 was performed to the determine the residues on CD33 that are involved in binding to the antibodies investigated. […] Briefly, a mutation library of CD33 was created by high-throughput, site-directed mutagenesis. Each residue was individually mutated to alanine, with alanine codons mutated to serine. The mutant library was arrayed in 384-well microplates and transiently transfected into HEK293-T. Following transfection, cells were incubated with the indicated antibodies (IgG or Fab) at concentrations pre-determined using an independent immunofluorescence titration curve on wild type CD33. […] Binding of each antibody to each mutant clone was determined in duplicates. For each point, background fluorescence was subtracted from the raw data, which were then normalized to antibody reactivity with wild type CD33.
(§2) Critical residues for antibody binding (outlined in dark grey) were residues whose mutations led to a binding of the test Abs of less than 20%. Additional secondary residues (outlined in light grey) were identified that led to a binding of the test Abs of between 20 and 40% as compared to the wild type CD33.

human CD33 P238A = human CD33 P238A (human, UniProt P20138 18-364); test: alanine scan, flow cytometry;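 note: HEK293-T cells transiently expressing single-residue alanine mutants of CD33 (alanine swapped to serine), antibody binding read by fluorescence in duplicate, background-subtracted, expressed relative to wild-type CD33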
Method: as §1, §2

human CD33 G263A = human CD33 G263A (human, UniProt P20138 18-364); test: alanine scan, flow cytometry;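 note: HEK293-T cells transiently expressing single-residue alanine mutants of CD33 (alanine swapped to serine), antibody binding read by fluorescence in duplicate, background-subtracted, expressed relative to wild-type CD33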
Method: as §1, §2

human CD33 A217S = human CD33 A217S (human, UniProt P20138 18-364); test: alanine scan, flow cytometry;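 note: HEK293-T cells transiently expressing single-residue alanine mutants of CD33 (alanine swapped to serine), antibody binding read by fluorescence in duplicate, background-subtracted, expressed relative to wild-type CD33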
Method: as §1, §2

human CD33 T240A = human CD33 T240A (human, UniProt P20138 18-364); test: alanine scan, flow cytometry
Method: as §1, §2

human CD33 I242A = human CD33 I242A (human, UniProt P20138 18-364); test: alanine scan, flow cytometry
Method: as §1, §2

human CD33 R225A = human CD33 R225A (human, UniProt P20138 18-364); test: alanine scan, flow cytometry
Method: as §1, §2

human CD33 R202A = human CD33 R202A (human, UniProt P20138 18-364); test: alanine scan, flow cytometry
Method: as §1, §2

human CD33 T222A = human CD33 T222A (human, UniProt P20138 18-364); test: alanine scan, flow cytometry
Method: as §1, §2

human CD33 P48D = human CD33 P48D (human, UniProt P20138 18-364); test: flow cytometry, transfected cells
human CD33 Y50Q = human CD33 Y50Q (human, UniProt P20138 18-364); test: flow cytometry, transfected cells
human CD33 P48N = human CD33 P48N (human, UniProt P20138 18-364); test: flow cytometry, transfected cells
human CD33 P48G = human CD33 P48G (human, UniProt P20138 18-364); test: flow cytometry, transfected cells
human CD33 Y50V = human CD33 Y50V (human, UniProt P20138 18-364); test: flow cytometry, transfected cells
human CD33 P48Y = human CD33 P48Y (human, UniProt P20138 18-364); test: flow cytometry, transfected cells
human CD33 P48F = human CD33 P48F (human, UniProt P20138 18-364); test: flow cytometry, transfected cells
human CD33 Y49P = human CD33 Y49P (human, UniProt P20138 18-364); test: flow cytometry, transfected cells
human CD33 K52D = human CD33 K52D (human, UniProt P20138 18-364); test: flow cytometry, transfected cells
human CD33 Y50D = human CD33 Y50D (human, UniProt P20138 18-364); test: flow cytometry, transfected cells
human CD33 P48Q = human CD33 P48Q (human, UniProt P20138 18-364); test: flow cytometry, transfected cells
Chain of human CD33 P48Q (P20138 18-364 P48Q limits assumed): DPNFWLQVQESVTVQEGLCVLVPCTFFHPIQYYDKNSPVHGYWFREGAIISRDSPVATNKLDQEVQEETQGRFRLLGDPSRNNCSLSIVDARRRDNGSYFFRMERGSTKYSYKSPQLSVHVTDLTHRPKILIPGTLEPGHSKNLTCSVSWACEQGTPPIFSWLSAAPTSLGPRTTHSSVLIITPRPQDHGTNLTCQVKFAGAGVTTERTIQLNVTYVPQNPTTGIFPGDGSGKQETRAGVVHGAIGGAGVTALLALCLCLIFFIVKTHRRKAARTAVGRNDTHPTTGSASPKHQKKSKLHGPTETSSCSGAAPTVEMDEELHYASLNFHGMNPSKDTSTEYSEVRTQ

Chain of human CD33 R202A (P20138 18-364 R202A limits assumed): as the sequence (P20138 18-364 P48Q limits assumed) above, with Q31P, R185A counted along it
Chain of human CD33 T222A (P20138 18-364 T222A limits assumed): as the sequence (P20138 18-364 P48Q limits assumed) above, with Q31P, T205A counted along it
Chain of human CD33 R225A (P20138 18-364 R225A limits assumed): as the sequence (P20138 18-364 P48Q limits assumed) above, with Q31P, R208A counted along it
Chain of human CD33 G263A (P20138 18-364 G263A limits assumed): as the sequence (P20138 18-364 P48Q limits assumed) above, with Q31P, G246A counted along it
Chain of human CD33 T240A (P20138 18-364 T240A limits assumed): as the sequence (P20138 18-364 P48Q limits assumed) above, with Q31P, T223A counted along it
Chain of human CD33 A217S (P20138 18-364 A217S limits assumed): as the sequence (P20138 18-364 P48Q limits assumed) above, with Q31P, A200S counted along it
Chain of human CD33 P238A (P20138 18-364 P238A limits assumed): as the sequence (P20138 18-364 P48Q limits assumed) above, with Q31P, P221A counted along it
Chain of human CD33 I227A (P20138 18-364 I227A limits assumed): as the sequence (P20138 18-364 P48Q limits assumed) above, with Q31P, I210A counted along it
Chain of human CD33 I242A (P20138 18-364 I242A limits assumed): as the sequence (P20138 18-364 P48Q limits assumed) above, with Q31P, I225A counted along it
Chain of human CD33 Y50D (P20138 18-364 Y50D limits assumed): as the sequence (P20138 18-364 P48Q limits assumed) above, with Q31P, Y33D counted along it
Chain of human CD33 P48D (P20138 18-364 P48D limits assumed): as the sequence (P20138 18-364 P48Q limits assumed) above, with Q31D counted along it
Chain of human CD33 P48Y (P20138 18-364 P48Y limits assumed): as the sequence (P20138 18-364 P48Q limits assumed) above, with Q31Y counted along it
Chain of human CD33 P48G (P20138 18-364 P48G limits assumed): as the sequence (P20138 18-364 P48Q limits assumed) above, with Q31G counted along it
Chain of human CD33 Y49P (P20138 18-364 Y49P limits assumed): as the sequence (P20138 18-364 P48Q limits assumed) above, with Q31P, Y32P counted along it
Chain of human CD33 Y50V (P20138 18-364 Y50V limits assumed): as the sequence (P20138 18-364 P48Q limits assumed) above, with Q31P, Y33V counted along it
Chain of human CD33 P48F (P20138 18-364 P48F limits assumed): as the sequence (P20138 18-364 P48Q limits assumed) above, with Q31F counted along it
Chain of human CD33 Y50Q (P20138 18-364 Y50Q limits assumed): as the sequence (P20138 18-364 P48Q limits assumed) above, with Q31P, Y33Q counted along it
Chain of human CD33 P48N (P20138 18-364 P48N limits assumed): as the sequence (P20138 18-364 P48Q limits assumed) above, with Q31N counted along it
Chain of human CD33 K52D (P20138 18-364 K52D limits assumed): as the sequence (P20138 18-364 P48Q limits assumed) above, with Q31P, K35D counted along it

Binder	Mean % WT Binding (human CD33 I227A)	Mean % WT Binding (human CD33 P238A)	Mean % WT Binding (human CD33 G263A)	Mean % WT Binding (human CD33 A217S)	Mean % WT Binding (human CD33 T240A)	Mean % WT Binding (human CD33 I242A)	Mean % WT Binding (human CD33 R225A)	Mean % WT Binding (human CD33 R202A)	Mean % WT Binding (human CD33 T222A)	binding result (human CD33 P48D)	binding result (human CD33 Y50Q)	binding result (human CD33 P48N)	binding result (human CD33 P48G)	binding result (human CD33 Y50V)	binding result (human CD33 P48Y)	binding result (human CD33 P48F)	binding result (human CD33 Y49P)	binding result (human CD33 K52D)	binding result (human CD33 Y50D)	binding result (human CD33 P48Q)
B1	105 % WT binding	157 % WT binding	104 % WT binding	121 % WT binding	96.9 % WT binding	81.8 % WT binding	124 % WT binding	123 % WT binding	111 % WT binding											
B2	88.1 % WT binding	114 % WT binding	94.3 % WT binding	91 % WT binding	97 % WT binding	99 % WT binding	104 % WT binding	92.2 % WT binding	92.2 % WT binding											
B3										no binding (tested: below 20%)	no binding (tested: below 20%)	no binding (tested: below 20%)	no binding (tested: below 20%)	no binding (tested: below 20%)	no binding (tested: below 20%)	no binding (tested: below 20%)	no binding (tested: below 20%)	no binding (tested: below 20%)	no binding (tested: below 20%)	no binding (tested: below 20%)
